The target in the assay is T1, neuropilin-1 (human, UniProt O14786 22-923).
T1 construct: whole, on cells; On intact cells in FACS and cell assays; pulled down from Triton X-100 lysate of HT1080 cells in the immunoprecipitation, identified as the full length form by MALDI peptide mass fingerprint; also called NP-1; VEGF165R
Kind of assay: competition FACS on HT1080 cells preincubated with VEGF165 (legend of FIG. 17). Here is the method: ScFv's were labeled with fluorescein isothiocyanate (Molecular Probes, # F-1906) according to the instructions of the manufacturer. HT1080 cells were preincubated with a control scFv, a NP-1-binding scFv's (e.g. scFv8, scFv13 or scFv22) (both at 25 μg/ml) or VEGF₁₆₅ (R&Dsystems, #293-VE/CF) ([…]) for 2 hours at 0° C. and the fluorescein labeled NP-1-binding scFv (5 μg/ml) was added for 30 min. at 0° C. Bound fluorescein labeled scFv were detected by flow cytometry and the geometric mean fluorescence intensity was recorded. In order to determine if NP-1-binding scFv has overlapping epitopes with VEGF and each other for binding to cell surface NP-1, a competition FACS with directly labeled scFv was performed. […] Furthermore, scFv8 and scFv24 have mutually overlapping epitopes whereas scFv13 has an epitope distinct from scFv8 and scFv24.

T1 sequence (O14786 22-923): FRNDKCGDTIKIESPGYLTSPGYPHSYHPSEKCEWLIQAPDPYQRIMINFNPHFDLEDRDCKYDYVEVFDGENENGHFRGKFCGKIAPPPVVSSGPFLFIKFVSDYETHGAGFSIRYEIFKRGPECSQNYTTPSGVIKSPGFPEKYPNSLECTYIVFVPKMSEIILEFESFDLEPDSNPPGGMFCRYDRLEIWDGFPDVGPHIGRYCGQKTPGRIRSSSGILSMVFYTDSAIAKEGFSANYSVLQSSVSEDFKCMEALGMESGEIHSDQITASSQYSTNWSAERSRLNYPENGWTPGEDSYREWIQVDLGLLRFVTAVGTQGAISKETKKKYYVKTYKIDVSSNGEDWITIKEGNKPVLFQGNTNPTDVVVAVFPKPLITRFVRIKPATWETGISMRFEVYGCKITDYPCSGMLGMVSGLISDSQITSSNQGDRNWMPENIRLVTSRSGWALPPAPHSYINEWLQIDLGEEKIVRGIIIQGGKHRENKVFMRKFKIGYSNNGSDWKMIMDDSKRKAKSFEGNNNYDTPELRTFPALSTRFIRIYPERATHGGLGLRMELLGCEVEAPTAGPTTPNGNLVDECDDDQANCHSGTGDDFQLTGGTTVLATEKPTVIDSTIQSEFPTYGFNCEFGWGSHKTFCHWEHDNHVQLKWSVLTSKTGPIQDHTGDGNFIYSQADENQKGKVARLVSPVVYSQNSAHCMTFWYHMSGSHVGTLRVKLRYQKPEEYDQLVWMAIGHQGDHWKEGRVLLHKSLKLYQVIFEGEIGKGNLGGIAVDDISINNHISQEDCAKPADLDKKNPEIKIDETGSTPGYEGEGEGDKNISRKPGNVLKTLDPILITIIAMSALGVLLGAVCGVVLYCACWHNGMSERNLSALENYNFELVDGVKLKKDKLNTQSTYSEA

B1: VEGF165 (R&Dsystems, #293-VE/CF) (ligand, human, UniProt P15692-4 27-191, looked up)
chain: APMAEGGGQNHHEVVKFMDVYQRSYCHPIETLVDIFQEYPDEIEYIFKPSCVPLMRCGGCCNDEGLECVPTEESNITMQIMRIKPHQGQHIGEMSFLQHNKCECRPKKDRARQENPCGPCSERRKHLFVQDPQTCKCSCKNTDSRCKARQLELNERTCRCDKPRR
notes: mature; also called recombinant human VEGF
Consider B1, for which the binding result is listed as “binds”.

The values above are taken from US20060115477A1 (Bristol-Myers Squibb, published 2006).
